From patent publication US20100129369A1 (Eli Lilly, published 2010)

Key:
[1] = target: T1, Human c-Met-Flis-Fc ECD (human); test: ELISA, coated ECD-Fc, antibody 0.000 ng/mL
T1 construct: also called human c-Met extracellular domain (ECD)-Fc-Flis fusion; Human cMet-ECD-Fc-Flis
Procedure: (§1) Wells of 96-well EIA/RIA high binding plates (Costar, #2592) are coated with 100 μL of 1 μg/mL human c-Met extracellular domain (ECD)-Fc-Flis fusion (SEQ ID NO:72), RON-ECD-Fc (R&D Systems, #1947-MS), or PlexinA2-ECD-Fc (Abnova, Taipei, Taiwan #H00005362-P01) in coating buffer (BioFX Labs, # COAT-1000-01) overnight at 4° C. […] After the plates are washed, 100 μL/well of substrate solution (BioFx, #TMBW-1000-01) are added and the plates are incubated for 10 min. at room temperature. 100 μL/well of stop solution (BioFx, # LSTP-1000-01) are added to stop the reaction. The colorimetric signals are developed and read at 450 nm using a SpectraMax 190 plate reader (Molecular Devices, Sunnyvale, Calif.). c-Met antibody binding to c-Met, RON and PlexinA2 ECDs is proportional to color signal production.

[2] = target: T1, Human c-Met-Flis-Fc ECD; test: ELISA, coated ECD-Fc, antibody 100000.000 ng/mL
Procedure: as §1

[3] = target: T2, Rat c-Met-Flis-Fc ECD (rat); test: SPR Biacore, antibody captured, ECD-Fc analyte, 1:1 model
T2 construct: also called Rat cMet-ECD-Fc-Flis; rat c-Met ECD
T2 sequence (chain, as listed by the source limits assumed): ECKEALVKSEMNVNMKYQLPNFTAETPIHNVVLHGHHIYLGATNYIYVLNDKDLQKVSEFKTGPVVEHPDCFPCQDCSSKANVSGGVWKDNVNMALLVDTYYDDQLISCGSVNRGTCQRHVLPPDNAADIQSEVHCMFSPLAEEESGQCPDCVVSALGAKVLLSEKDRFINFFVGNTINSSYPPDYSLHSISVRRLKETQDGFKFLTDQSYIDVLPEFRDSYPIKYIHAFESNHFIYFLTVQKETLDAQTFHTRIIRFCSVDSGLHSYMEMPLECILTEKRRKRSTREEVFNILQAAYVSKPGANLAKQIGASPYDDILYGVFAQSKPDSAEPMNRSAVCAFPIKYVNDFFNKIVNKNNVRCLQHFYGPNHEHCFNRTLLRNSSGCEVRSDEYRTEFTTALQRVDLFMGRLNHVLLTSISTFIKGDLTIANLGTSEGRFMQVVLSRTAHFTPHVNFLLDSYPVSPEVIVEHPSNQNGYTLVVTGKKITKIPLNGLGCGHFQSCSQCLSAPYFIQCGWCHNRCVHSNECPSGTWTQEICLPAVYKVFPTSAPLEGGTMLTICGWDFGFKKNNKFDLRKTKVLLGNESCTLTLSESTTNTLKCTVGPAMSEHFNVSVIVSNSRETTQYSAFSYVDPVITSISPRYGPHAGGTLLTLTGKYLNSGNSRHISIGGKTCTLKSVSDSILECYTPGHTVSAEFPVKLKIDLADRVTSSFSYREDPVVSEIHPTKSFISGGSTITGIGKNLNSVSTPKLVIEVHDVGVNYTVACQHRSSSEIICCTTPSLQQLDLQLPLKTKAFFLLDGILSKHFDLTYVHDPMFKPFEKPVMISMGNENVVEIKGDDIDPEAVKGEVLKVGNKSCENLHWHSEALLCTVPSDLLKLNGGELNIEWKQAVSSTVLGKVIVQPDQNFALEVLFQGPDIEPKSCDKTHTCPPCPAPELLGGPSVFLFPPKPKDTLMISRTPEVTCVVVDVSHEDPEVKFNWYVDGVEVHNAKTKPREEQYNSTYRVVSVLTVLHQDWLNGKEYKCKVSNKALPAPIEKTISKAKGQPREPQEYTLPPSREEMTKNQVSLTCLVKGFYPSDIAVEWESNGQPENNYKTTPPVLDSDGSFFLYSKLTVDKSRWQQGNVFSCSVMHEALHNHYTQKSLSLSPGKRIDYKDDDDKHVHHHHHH
Procedure: (§2) A Biacore® 2000 instrument is used to measure the binding kinetics of c-Met antibodies to human, cynomolgus monkey, and rat c-Met ECDs. Measurements are performed at 25° C. Samples are dissolved in HBS-EP buffer (150 mM sodium chloride, 3 mM EDTA, 0.005% (w/v) surfactant P-20, and 10 mM N-2-hydroxyethylpiperazine-N′-2-ethanesulfonic acid (HEPES) at pH 7.4; #BR-1001-88).
(§3) Binding is evaluated using multiple cycles. Each cycle is performed at a flow rate of 50 μL/min., and consists of the following steps: injection of about 10 μL of a c-Met antibody at 10 μg/mL aiming at a capture of 40-100 RUs, injection of 250 μL of human, cynomolgus, or rat c-Met-Flis-Fc ECD (starting at 100 nM and using two-fold serial dilutions for each cycle) followed by 20 min. for dissociation, and regeneration using about 30 μL of 10 mM glycine hydrochloride, pH 1.5. Association and dissociation rates for each cycle are evaluated using a “1:1 (Langmuir) binding” model in the BIAevaluation software, version 4.1.

[4] = target: T1, Human c-Met-Flis-Fc ECD; test: as above
Procedure: as §2, §3

[5] = target: T3, Cynomolgus Monkey c-Met-Flis-Fc ECD (cynomolgus monkey); test: as above
T3 construct: also called Cynomolgus Monkey cMet-ECD-Fc-Flis; cynomolgus monkey c-Met ECD
T3 sequence (chain, as listed by the source limits assumed): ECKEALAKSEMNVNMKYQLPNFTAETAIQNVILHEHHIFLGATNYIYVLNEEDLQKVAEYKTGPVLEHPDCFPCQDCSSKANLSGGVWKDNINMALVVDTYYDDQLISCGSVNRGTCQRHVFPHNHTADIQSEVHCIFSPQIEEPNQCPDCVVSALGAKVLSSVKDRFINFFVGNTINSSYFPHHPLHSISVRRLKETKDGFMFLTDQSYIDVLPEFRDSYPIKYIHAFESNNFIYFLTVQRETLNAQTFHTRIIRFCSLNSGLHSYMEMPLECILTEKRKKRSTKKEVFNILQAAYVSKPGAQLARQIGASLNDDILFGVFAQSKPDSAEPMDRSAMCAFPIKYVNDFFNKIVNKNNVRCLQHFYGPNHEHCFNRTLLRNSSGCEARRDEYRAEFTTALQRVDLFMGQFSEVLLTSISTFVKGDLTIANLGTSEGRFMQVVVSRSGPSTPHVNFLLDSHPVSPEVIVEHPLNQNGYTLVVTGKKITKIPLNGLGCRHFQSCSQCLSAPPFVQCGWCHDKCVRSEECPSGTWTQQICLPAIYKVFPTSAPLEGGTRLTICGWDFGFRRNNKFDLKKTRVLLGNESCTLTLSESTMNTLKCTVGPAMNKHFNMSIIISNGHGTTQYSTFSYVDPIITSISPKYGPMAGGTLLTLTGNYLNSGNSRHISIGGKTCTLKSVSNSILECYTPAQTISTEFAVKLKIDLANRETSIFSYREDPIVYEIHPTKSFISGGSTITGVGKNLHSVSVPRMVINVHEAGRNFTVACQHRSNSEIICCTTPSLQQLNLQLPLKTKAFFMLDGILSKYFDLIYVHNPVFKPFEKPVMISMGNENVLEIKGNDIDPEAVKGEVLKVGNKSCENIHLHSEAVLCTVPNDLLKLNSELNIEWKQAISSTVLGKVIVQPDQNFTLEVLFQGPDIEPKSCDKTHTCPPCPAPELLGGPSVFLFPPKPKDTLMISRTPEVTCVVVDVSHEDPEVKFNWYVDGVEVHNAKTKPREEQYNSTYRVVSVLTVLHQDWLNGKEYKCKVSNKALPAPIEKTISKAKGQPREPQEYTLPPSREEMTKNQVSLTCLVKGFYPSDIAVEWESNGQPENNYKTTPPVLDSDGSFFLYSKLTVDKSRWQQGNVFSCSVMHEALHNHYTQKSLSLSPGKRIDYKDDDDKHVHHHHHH
Procedure: as §2, §3

[6] = target: T1, Human c-Met-Flis-Fc ECD; test: ELISA, coated ECD-Fc, antibody 0.357 ng/mL
Procedure: as §1

[7] = target: T1, Human c-Met-Flis-Fc ECD; test: ELISA, coated ECD-Fc, antibody 2.143 ng/mL
Procedure: as §1

[8] = target: T1, Human c-Met-Flis-Fc ECD; test: ELISA, coated ECD-Fc, antibody 0.002 ng/mL
Procedure: as §1

[9] = target: T1, Human c-Met-Flis-Fc ECD; test: ELISA, coated ECD-Fc, antibody 16666.667 ng/mL
Procedure: as §1

[10] = target: T1, Human c-Met-Flis-Fc ECD; test: ELISA, coated ECD-Fc, antibody 462.963 ng/mL
Procedure: as §1

[11] = target: T1, Human c-Met-Flis-Fc ECD; test: ELISA, coated ECD-Fc, antibody 2777.778 ng/mL
Procedure: as §1

[12] = target: T1, Human c-Met-Flis-Fc ECD; test: ELISA, coated ECD-Fc, antibody 77.160 ng/mL
Procedure: as §1

[13] = target: T1, Human c-Met-Flis-Fc ECD; test: ELISA, coated ECD-Fc, antibody 0.010 ng/mL
Procedure: as §1

[14] = target: T1, Human c-Met-Flis-Fc ECD; test: ELISA, coated ECD-Fc, antibody 0.060 ng/mL
Procedure: as §1

[15] = target: T1, Human c-Met-Flis-Fc ECD; test: ELISA, coated ECD-Fc, antibody 12.860 ng/mL
Procedure: as §1

T1 sequence (chain, as listed by the source limits assumed): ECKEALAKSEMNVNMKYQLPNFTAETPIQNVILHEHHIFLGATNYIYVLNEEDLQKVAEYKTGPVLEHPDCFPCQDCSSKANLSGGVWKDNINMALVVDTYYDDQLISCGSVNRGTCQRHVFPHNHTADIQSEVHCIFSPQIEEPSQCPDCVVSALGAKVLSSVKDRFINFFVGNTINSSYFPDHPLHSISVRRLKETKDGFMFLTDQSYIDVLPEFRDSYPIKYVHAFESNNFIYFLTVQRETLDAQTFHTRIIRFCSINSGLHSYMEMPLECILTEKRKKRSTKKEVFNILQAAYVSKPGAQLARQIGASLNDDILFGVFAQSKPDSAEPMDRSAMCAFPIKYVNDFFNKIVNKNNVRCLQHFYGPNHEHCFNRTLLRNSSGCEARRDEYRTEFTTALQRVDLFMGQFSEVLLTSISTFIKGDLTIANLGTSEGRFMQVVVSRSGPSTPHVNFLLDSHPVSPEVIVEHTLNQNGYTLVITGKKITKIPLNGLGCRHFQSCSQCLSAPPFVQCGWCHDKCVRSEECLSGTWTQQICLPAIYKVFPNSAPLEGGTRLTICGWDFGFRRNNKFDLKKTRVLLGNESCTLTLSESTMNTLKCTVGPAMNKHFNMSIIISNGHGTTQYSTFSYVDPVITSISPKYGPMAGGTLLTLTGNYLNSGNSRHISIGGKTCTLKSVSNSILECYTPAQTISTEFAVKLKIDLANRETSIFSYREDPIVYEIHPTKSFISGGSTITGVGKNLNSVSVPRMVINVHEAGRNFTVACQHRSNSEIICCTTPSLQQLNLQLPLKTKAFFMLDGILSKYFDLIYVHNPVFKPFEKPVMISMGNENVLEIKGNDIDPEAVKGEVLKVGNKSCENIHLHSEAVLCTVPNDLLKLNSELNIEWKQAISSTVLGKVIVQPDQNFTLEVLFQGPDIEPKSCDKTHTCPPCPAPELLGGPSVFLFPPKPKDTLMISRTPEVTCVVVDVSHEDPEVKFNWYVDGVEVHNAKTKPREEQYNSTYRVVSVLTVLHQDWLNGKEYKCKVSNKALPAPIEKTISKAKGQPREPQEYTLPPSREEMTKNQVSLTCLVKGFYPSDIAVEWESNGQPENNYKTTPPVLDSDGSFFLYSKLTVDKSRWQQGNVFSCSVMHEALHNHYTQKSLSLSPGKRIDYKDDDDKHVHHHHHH

B1: D11-8B8 (antibody, human IgG2, kappa, V domains shown)
VH: QVQLVQSGAEVKKPGSSVKVSCKASGYTFTSRYIHWVRQAPGQGLEWMGWIYPVTGDTYYIEKFKGRVTITADKSTSTAYMELSSLRSEDTAVYYCARGYGAFFYWGQGTLVTVSS
VL: EIVLTQSPGTLSLSPGERATLSCSVSSSISSTNLHWYQQKPGQAPRLLIYGTSYLASGIPDRFSGSGSGTDFTLTISRLEPEDFAVYYCQQWSSYPYSFGQGTKLEIKR
notes: Human engineered IgG2, kappa; expressed in HEK293 EBNA cells; also called Mab D11-8B8
Average A450 nm [1]: 0.297 A450 nm
Average A450 nm [2]: 4 A450 nm
Kd [3]: 0.89 nM
koff [3]: 0.00019 s⁻¹
kon [3]: 210000 M⁻¹ s⁻¹
Kd [4]: 0.5 nM
koff [4]: 5e-05 s⁻¹
kon [4]: 100000 M⁻¹ s⁻¹
Kd [5]: 2.9 nM
koff [5]: 0.000223 s⁻¹
kon [5]: 78000 M⁻¹ s⁻¹
Average A450 nm [6]: 1.31 A450 nm
Average A450 nm [7]: 2.42 A450 nm
Average A450 nm [8]: 0.299 A450 nm
Average A450 nm [9]: 4 A450 nm
Average A450 nm [10]: 4 A450 nm
Average A450 nm [11]: 4 A450 nm
Average A450 nm [12]: 4 A450 nm
Average A450 nm [13]: 0.304 A450 nm
Average A450 nm [14]: 0.445 A450 nm
Average A450 nm [15]: 3.93 A450 nm
